Data taken from the supplement of paper PMC9170038.

Assays:
MS2 coat protein [1] = assay: apparent KD of MS2 coat protein, switch ON state; designed switch direction (-1 OFF switch, 1 ON switch): 1; higher = weaker reporter binding; conditions: FMN input: 0 or 200 uM; Eterna round: R93 (includes R88 designs)
Method in brief: (§1)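 Designed RNA switches were transcribed on-chip from Illumina sequencing clusters and titrated with SNAP-549-labelled MS2 coat protein in twofold steps from 0.7 or 1.5 nM up to 3 µM. Each step lasted 0.8–1.5 h at first and 10–20 min by the end, in 100 mM Tris-HCl pH 7.5, 80 mM KCl and 4 mM MgCl2, without or with constant ligand. Apparent KD is the median, for each design, of fits to normalised cluster binding curves.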

MS2 coat protein [2] = assay: apparent KD of MS2 coat protein, switch OFF state (with FMN for OFF switches, without FMN for ON switches); designed switch direction (-1 OFF switch, 1 ON switch): 1; higher = weaker reporter binding; conditions: FMN input: 0 or 200 uM; Eterna round: R93 (includes R88 designs)
Method in brief: as §1

Sequence | apparent KD of MS2 coat protein (MS2 coat protein [1]) [nM] | apparent KD of MS2 coat protein (MS2 coat protein [2]) [nM]
AAAAAAUAAAAAAAGGAUAUAAUCGAUGGAACAUGAGGAUCACCCAUGUGACAUCGAAAAAUAAAAAAGAAGGAAAAAUAAAAAA [SS2: MS2 24] | 17.6 | 11.2
AACAAUCUAUCUGAGGAUAUCAUAAAAAAAACAUGAGGAUCACCCAUGUGCAGGAAAACUGCAUAUGAGAAGGCAGAUAGAUUGA [SS2: 1102] | 8.73 | 10.6
CUAGUUGCAUACUAGGAUAUACACUGGGUGACAUGAGGAUCACCCAUGUAAAAGCACAUUCGGUAGUAGAAGGAGUGUGCAGGUC [Ceedesbi] | 92.6 | 68.8
GAAAAACAUGAGGAUCACCCAUGUGAGAAUAUGGGAGGAUAUACAAGGACGAGAGUCAAGGUAGAAGGCCUAAAAG [Mat - Same State 1 - Eli mod - 29] | 41.7 | 247
AAUAUAUUAAGUGAGGAUAUCGAGGAAAAAACAUGAGGAUCACCCAUGUGGGAAACAUGGUAGGGUGAGAAGGUACUUAAUAUAU [Samwise Clockwise 23 - Jieux - Same State 2] | 218 | 220
GAGUACAUAGUACAGGAUAUAUGAAUAGUUACAUGAGGAUCACCCAUGUGCAUUUAUAUGCGCACAUAGAAGGGUGGUAGGUAUC [Mat - Same state - Malcolm Mod - D127] | 38.8 | 29.4
GAAAAACAUGAGGAUCACCCAUGUAAAAAUAUGGGAGGAUAUUCAAACACGAAAGUCAAAGAAGAAGGCCUAAAAG [Garnet 2] | 30.4 | 207
AGAAAUAAAGCAGAGGAUAUCCAAAAGAAAACAUGAGGAUCACCCAUGUAAAAGAAAAUAAAAUGGGAGAAGGCUGCAAAUAAAG | 18.5 | 23.9
AACACGCGGGCGCAGGAUAUGUCGCUGGUGACAUGAGGAUCACCCAUGUAUACCAUUGCGGUUGAGCAGAAGGGUGAGAUGCGUG [Beisesanxe] | 15.9 | 59.5
AAGAAACAUGAGGAUCACCCAUGUGAUAAUAUGGGAGGAUAUACGAAGACGAAAGUCGAAGUAGAAGGCCUAUGAA [Garnet 42] | 40.2 | 57.2
CGAUCACAUGAGGAUCACCCAUGUAUCGAUAAACGAGGAUAUGGGAGCGGGAUCUGUGGACCAGAAGGCGUACGGA [Celeus] | 23.4 | 38.7
AAGAAACAUGAGGAUCACCCAUGUAAGAUAUACACAGGAUAUGCGAAAAGAAACAAAGAAGCAGAAGGGUGGAAAA [75%, Ex sub1, 10] | 14.9 | 33.4
GACCGACAUGAGGAUCACCCAUGUCGGAAAAGGCAAGGAUAUGGGCGGUACCAAUUUCGGUCAGAAGGUGCAAAAG [Aatisri] | 12.4 | 14.6
UUUAGCUGCGGGCAGGAUAUGUAUUAAAAUACAUGAGGAUCACCCAUGUGCAGGUGUAACACCUGACAGAAGGGCCAAUCGCGGC [Bequre] | 25 | 193
CAUAGACAUGAGGAUCACCCAUGUAGAAUUAUGGGAGGAUAUACAAAGACGAGAGUCAGAGUAGAAGGCCUAGGAU [salish99-ss1-162] | 24.1 | 35.6
AAAAAAGAUCGAGAGGAUAUCCGAGUGGUAACAUGAGGAUCACCCAUGUGAAGAAAGGAACAUGAGGAGAAGGCUCGAUCAAAAA [viburnum 4] | 7.85 | 18.7
AGGAAACAUGAGGAUCACCCAUGUAAAAGGUGGUUAGGAUAUGCGAUAAUAAAAAUAAUAGCAGAAGGGACAAGAA [Same State of Confusion3 mod Fisker] | 215 | 416
CGCCAAUUGGCACAGGAUAUGAGCAUGCUCACAUGAGGAUCACCCAUGUGAUUACCAACGCAAAAUCAGAAGGGUGCCCUCGUCA [Beanza] | 69 | 92.6
